Where two headings read alike, the source gives them in different places.

What all share (test): MST
The target of assay [1] is FITC-labeled IST1 (recombinant full-length IST1).
For assay [2] the target is unchanged. The source holds these as a separate data set.
Assay [3] has the same target. The source holds these as a separate data set.

B1: CHMP1B (recombinant full length) (natural protein)
chain: MSNMEKHLFNLKFAAKELSRSAKKCDKEEKAEKAKIKKAIQKGNMEVARIHAENAIRQKNQAVNFLRMSARVDAVAARVQTAVTMGKVTKSMAGVVKSMDATLKTMNLEKISALMDKFEHQFETLDVQTQQMEDTMSSTTTLTTPQNQVDMLLQEMADEAGLDLNMELPQGQTGSVGTSVASAEQDELSQRLARLRDQV
In general, Kd refers to a measure of binding affinity in units of concentration. In the case of B1, the Kd in assay [1] worked out at 20.3 µM; in assay [2], 153 µM; in assay [3], 9 µM.

Values taken from article doi:10.1101/2023.08.28.555152.
